Patent publication US20240043859A1, “HERBICIDE-RESISTANT PROTEIN, AND GENE AND USE THEREOF” (QINGDAO KINGAGROOT CHEMICAL COMPOUND CO., LTD., priority 2020, published 2024)
Entries after “also recorded” stand apart in the source; their conditions may differ.

Legend:
maize B104 = assay: Herbicide-resistance capacity testing of transgenic maize (spray); type: in vivo; conditions: 2,4-D 4.48 kg/ha foliage spray, 14 days / 15 days after spraying
Source text: 1. Vector construction: the overexpression vector was altered from pCambia3300, containing a Bar resistance gene that can be used as a selection marker for bialaphos (glufosinate). The AAD-like gene, QYD42, SEQ ID NO. 83, was linked to the pCambia3300 at the BamH I restriction site by seamless cloning to construct the transgenic vector pQY2329, of which the expression cassette consisted of a maize ubiquitin-1 promoter, the AAD gene and a Nos terminator, as shown in FIG. 7-1.
2. Genetic transformation of maizes: Maize transformation was carried out by the Agrobacterium-mediated immature embryo transformation method (Jones T, Lowe K, Hoerster G, et al. Maize Transformation Using the Morphogenic Genes Baby Boom and Wuschel2. Methods Mol Biol. 2019; 1864:81-93. Doi: 10.1007/978-1-4939-8778-8 6). The Agrobacterium (EHA105) comprising the pQY2329 overexpression vector was inoculated into YEP liquid medium (containing 25 mg/L Rifampicin and 50 mg/L Kanamycin), and shaking-cultured a t 28° C., 220 rmp/min overnight until the OD600 was about 1.0-1.5, then centrifuged at 6000 rmp/min for 10 min to collect the cells into a 50 ml centrifuge tube (sterilized). After discarding the supernatant, the cells were resuspended using MS infect culture medium (containing 68.5 g/L sucrose, 36 g/L glucose, pH 5.8) to OD550=0.8. […]

[1] = Chromogenic reaction of degrading herbicides in bacteria: 2,4-D; type: cell-based, Escherichia coli; conditions: recombinant E. coli expressing the gene, 2,4-D added to the medium, red = phenols
In short: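 E. coli BL21(DE3) carrying AAD12 or empty pET15b was induced with 0.1 mM IPTG plus 2 mM α-ketoglutarate and given 0.5 mM 2,4-D, then grown overnight at 28 °C. Supernatant was treated with pH 10 borate, potassium ferricyanide and 4-aminoantipyrine for 5 min at room temperature; red colour read at A510.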

B1: QYD42: AAD-like enzyme, SEQ ID NO. 83; expressed from vectors pQY2309 (Arabidopsis), pQY2329 (maize), pQY2330 (soybean) (protein)
chain: MQITPIADATFGATVTGLRLATLDDAGFARLHAAWLQHALLVFPGQFLTNAEQIGFAKRFGPIERIGGGDIVAISNVKADGTVRQHSPAEWDDMMKVIVGNMAWHADSTYMPVMAQGAVFSAEVVPPTGGRTCFADMRAAYDALDDATRALVHQRSARHSLVYSQSKLGHVQQAGSAYVGYGMDTTATPLRPLVKRHPETGRLSLLIGRHAHAIPGLEEAESERFLEDLVAWACQPPRVVAHHWTAGDVVLWDNRCLLHRAEPWDFTLPRVMWHSRLAGHPETEAAPLV
modifications: Synthetic polypeptide, QYD42, D42
Resistance of T1 transgenic maize to 2,4-D (spray) (maize B104): grew normally without any growth inhibition; also recorded: no apparent deformity
Chromogenic reaction of degrading herbicides in bacteria: 2,4-D [1]: Yes
Chromogenic reaction of degrading herbicides in bacteria: 2,4-D ([1]; listed as D42): could degrade 2,4-D; also recorded: capable of degrading 2,4-D
